The supplement of paper PMC10065799, “High-throughput profiling of sequence recognition by tyrosine kinases and SH2 domains using bacterial peptide display” (eLife, 2023)

target: Hck (UniProt P08631); experiment: phosphorylation enrichment, bacterial display (enrichment ratio); higher = better substrate or ligand; peptides without Tyr show the background
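Further: 11-residue human phosphosite peptides and single-mutation variants displayed on the E. coli surface, counted by deep sequencing, each peptide's frequency after selection divided by its frequency in the unselected input library; frequency after pTyr selection over input frequency; kinase dosed for 20-30% of maximal phosphorylation in three min.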

Sequence of Hck (P08631 whole entry, looked up): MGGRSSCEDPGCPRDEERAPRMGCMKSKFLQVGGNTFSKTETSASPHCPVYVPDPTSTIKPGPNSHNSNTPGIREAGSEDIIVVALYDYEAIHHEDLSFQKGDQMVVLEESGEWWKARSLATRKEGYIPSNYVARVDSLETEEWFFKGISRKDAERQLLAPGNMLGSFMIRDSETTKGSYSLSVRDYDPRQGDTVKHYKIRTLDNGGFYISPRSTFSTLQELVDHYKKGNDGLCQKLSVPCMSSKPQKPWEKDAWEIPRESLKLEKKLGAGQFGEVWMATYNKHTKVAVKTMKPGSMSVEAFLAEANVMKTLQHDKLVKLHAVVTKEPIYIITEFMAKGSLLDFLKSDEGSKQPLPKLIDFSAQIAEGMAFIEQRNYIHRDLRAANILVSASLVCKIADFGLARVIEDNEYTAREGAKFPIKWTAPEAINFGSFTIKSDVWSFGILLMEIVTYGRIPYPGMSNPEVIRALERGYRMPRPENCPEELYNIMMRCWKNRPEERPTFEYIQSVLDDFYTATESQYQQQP

Row | Sequence | phosphorylation enrichment
1 | DISEPYEVFRI [IRF8_Y107_K108E_YF] | 1.81
2 | VLALWYYYLTH [ZDHHC23_Y127] | 0.783
3 | KPPPSYESEEE [BRD4_Y599_T598S] | 0.601
4 | IVKAFYVRARA [AIPL1_Y268_YF] | 0.494
5 | GYAGKYIAMVM [CYP19A1_Y441_C437Y] | 0.526
6 | PLGVLYKVKVF [PTS_Y128_V124L_YF] | 0.553
7 | QLDQHYLLVPE [DDX49_Y223_R222H] | 0.893
8 | APSHAYHRGVL [ANO1_Y981_G983R] | 0.385
9 | WRVIGYHVVVW [ATP13A2_Y50] | 0.568
10 | FSIAQYCCRMG [LRRK2_Y2023_G2019S_YF] | 0.449
11 | SLNAVYPKAGS [OAS3_Y376_R378K] | 0.422
12 | FLAATYPTVGQ [NF1_Y2508_YF] | 0.518
13 | SGDDGYAKDAK [TENM4_Y1530] | 0.584
14 | TDIVAYSGWVQ [SPTBN2_Y477_R480W] | 1.53
15 | THPFPYLSLEI [MLH1_Y293_L292P] | 0.475
16 | METKGYQSLPE [NR3C2_Y6_H7Q] | 0.423
17 | QDIMAYRSREV [BCL6_Y157_G159S] | 0.314
18 | KPIETYFSKNF [PLP1_Y50_L46P_YF] | 0.436
19 | HYECKYVINAI [MAOA_Y268] | 0.657
20 | PLDGEYSTLQI [TP53_Y327_F328S] | 3.08
21 | LSVMSYDLGMF [GBA3_Y174] | 0.947
22 | ACEVLYNIAFM [NCF2_Y125] | 2.45
23 | LWKWKYEELKE [CCDC102B_Y299] | 0.513
24 | DLDATYRPMFS [JUP_Y701_M697L_YF] | 0.686
25 | HDRNTYEKYLE [TF_Y666_G671E] | 0.736
26 | NPQKSYFICLY [WAS_Y83_R86C] | 0.438
27 | LLVVLCKYRCY [PSEN1_Y154_Y154C] | 0.382
28 | DISEPYEVYRI [IRF8_Y107_K108E] | 1.28
29 | CTTIHYNYMHN [TP53_Y234_C238H] | 0.407

target: Jak2 (UniProt O60674); experiment: as above
Sequence (O60674 whole entry, looked up): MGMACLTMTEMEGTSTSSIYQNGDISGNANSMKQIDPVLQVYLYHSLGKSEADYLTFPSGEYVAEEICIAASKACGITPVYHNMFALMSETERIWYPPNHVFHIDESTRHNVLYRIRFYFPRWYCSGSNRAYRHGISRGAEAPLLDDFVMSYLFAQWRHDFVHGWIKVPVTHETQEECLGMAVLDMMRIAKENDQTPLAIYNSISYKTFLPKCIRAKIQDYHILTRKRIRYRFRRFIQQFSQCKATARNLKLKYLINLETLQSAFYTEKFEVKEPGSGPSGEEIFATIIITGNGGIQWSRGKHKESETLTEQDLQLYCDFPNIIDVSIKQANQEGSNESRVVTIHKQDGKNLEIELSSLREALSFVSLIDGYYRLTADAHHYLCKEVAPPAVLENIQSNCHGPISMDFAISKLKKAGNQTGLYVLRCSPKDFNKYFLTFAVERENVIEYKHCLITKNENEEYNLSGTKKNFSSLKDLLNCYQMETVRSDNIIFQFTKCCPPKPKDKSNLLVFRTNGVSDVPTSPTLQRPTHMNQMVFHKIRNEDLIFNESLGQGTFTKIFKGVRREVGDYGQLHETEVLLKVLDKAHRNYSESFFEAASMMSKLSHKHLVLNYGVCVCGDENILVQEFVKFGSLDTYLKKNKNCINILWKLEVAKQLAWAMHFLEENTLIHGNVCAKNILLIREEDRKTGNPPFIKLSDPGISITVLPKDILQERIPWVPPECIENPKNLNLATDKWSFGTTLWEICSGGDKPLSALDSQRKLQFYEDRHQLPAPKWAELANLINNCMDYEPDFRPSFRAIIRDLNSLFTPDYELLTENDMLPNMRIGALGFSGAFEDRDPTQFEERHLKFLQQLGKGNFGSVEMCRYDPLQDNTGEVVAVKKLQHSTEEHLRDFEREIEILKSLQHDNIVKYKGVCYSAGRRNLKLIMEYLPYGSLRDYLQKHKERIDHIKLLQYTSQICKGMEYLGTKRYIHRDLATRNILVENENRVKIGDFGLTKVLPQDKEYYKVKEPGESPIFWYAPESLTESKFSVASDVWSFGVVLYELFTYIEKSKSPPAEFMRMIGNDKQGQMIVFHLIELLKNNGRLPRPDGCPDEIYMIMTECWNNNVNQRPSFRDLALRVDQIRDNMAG

Row | Sequence | phosphorylation enrichment
30 | DISEPYEVFRI [IRF8_Y107_K108E_YF] | 1.09
31 | VLALWYYYLTH [ZDHHC23_Y127] | 2.57
32 | KPPPSYESEEE [BRD4_Y599_T598S] | 1.32
33 | IVKAFYVRARA [AIPL1_Y268_YF] | 0.95
34 | GYAGKYIAMVM [CYP19A1_Y441_C437Y] | 0.644
35 | PLGVLYKVKVF [PTS_Y128_V124L_YF] | 1.23
36 | QLDQHYLLVPE [DDX49_Y223_R222H] | 1.14
37 | APSHAYHRGVL [ANO1_Y981_G983R] | 0.534
38 | WRVIGYHVVVW [ATP13A2_Y50] | 1.19
39 | FSIAQYCCRMG [LRRK2_Y2023_G2019S_YF] | 0.758
40 | SLNAVYPKAGS [OAS3_Y376_R378K] | 0.474
41 | FLAATYPTVGQ [NF1_Y2508_YF] | 0.404
42 | SGDDGYAKDAK [TENM4_Y1530] | 0.456
43 | TDIVAYSGWVQ [SPTBN2_Y477_R480W] | 0.82
44 | THPFPYLSLEI [MLH1_Y293_L292P] | 1.09
45 | METKGYQSLPE [NR3C2_Y6_H7Q] | 0.77
46 | QDIMAYRSREV [BCL6_Y157_G159S] | 0.759
47 | KPIETYFSKNF [PLP1_Y50_L46P_YF] | 0.636
48 | HYECKYVINAI [MAOA_Y268] | 0.95
49 | PLDGEYSTLQI [TP53_Y327_F328S] | 1.33
50 | LSVMSYDLGMF [GBA3_Y174] | 1.44
51 | ACEVLYNIAFM [NCF2_Y125] | 1.11
52 | LWKWKYEELKE [CCDC102B_Y299] | 1.09
53 | DLDATYRPMFS [JUP_Y701_M697L_YF] | 0.673
54 | HDRNTYEKYLE [TF_Y666_G671E] | 1.24
55 | NPQKSYFICLY [WAS_Y83_R86C] | 1.12
56 | LLVVLCKYRCY [PSEN1_Y154_Y154C] | 0.786
57 | DISEPYEVYRI [IRF8_Y107_K108E] | 0.912
58 | CTTIHYNYMHN [TP53_Y234_C238H] | 0.531

target: MERTK (UniProt Q12866); experiment: as above
Sequence (Q12866 whole entry, looked up): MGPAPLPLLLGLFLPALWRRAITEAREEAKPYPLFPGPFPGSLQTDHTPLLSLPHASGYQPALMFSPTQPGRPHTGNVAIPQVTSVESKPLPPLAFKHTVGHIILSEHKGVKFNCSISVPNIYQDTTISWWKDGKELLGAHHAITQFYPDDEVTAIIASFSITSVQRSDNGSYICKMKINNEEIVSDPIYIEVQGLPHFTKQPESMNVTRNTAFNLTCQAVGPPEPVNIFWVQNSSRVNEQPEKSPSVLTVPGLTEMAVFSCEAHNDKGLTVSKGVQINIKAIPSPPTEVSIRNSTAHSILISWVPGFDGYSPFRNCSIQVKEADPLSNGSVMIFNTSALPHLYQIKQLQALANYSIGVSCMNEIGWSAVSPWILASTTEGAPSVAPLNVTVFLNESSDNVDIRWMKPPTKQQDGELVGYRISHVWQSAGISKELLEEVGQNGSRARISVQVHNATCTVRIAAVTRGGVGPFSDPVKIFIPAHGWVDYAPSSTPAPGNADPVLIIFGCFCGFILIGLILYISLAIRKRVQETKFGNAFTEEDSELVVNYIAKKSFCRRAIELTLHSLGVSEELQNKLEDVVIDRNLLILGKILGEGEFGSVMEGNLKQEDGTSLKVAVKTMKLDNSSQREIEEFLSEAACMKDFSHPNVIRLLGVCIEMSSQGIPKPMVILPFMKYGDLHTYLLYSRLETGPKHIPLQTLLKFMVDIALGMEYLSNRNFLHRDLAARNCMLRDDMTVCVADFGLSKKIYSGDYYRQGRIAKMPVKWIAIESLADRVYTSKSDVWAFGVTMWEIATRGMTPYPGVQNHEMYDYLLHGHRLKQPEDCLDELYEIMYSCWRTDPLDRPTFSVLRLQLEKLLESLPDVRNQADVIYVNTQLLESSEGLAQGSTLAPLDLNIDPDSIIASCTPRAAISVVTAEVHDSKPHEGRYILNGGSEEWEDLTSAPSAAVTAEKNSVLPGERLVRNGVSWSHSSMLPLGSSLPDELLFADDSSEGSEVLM

Row | Sequence | phosphorylation enrichment
59 | DISEPYEVFRI [IRF8_Y107_K108E_YF] | 0.572
60 | VLALWYYYLTH [ZDHHC23_Y127] | 2.99
61 | KPPPSYESEEE [BRD4_Y599_T598S] | 0.543
62 | IVKAFYVRARA [AIPL1_Y268_YF] | 0.424
63 | GYAGKYIAMVM [CYP19A1_Y441_C437Y] | 0.479
64 | PLGVLYKVKVF [PTS_Y128_V124L_YF] | 0.446
65 | QLDQHYLLVPE [DDX49_Y223_R222H] | 0.825
66 | APSHAYHRGVL [ANO1_Y981_G983R] | 0.38
67 | WRVIGYHVVVW [ATP13A2_Y50] | 0.417
68 | FSIAQYCCRMG [LRRK2_Y2023_G2019S_YF] | 0.994
69 | SLNAVYPKAGS [OAS3_Y376_R378K] | 0.417
70 | FLAATYPTVGQ [NF1_Y2508_YF] | 0.396
71 | SGDDGYAKDAK [TENM4_Y1530] | 0.386
72 | TDIVAYSGWVQ [SPTBN2_Y477_R480W] | 0.621
73 | THPFPYLSLEI [MLH1_Y293_L292P] | 0.414
74 | METKGYQSLPE [NR3C2_Y6_H7Q] | 0.361
75 | QDIMAYRSREV [BCL6_Y157_G159S] | 0.398
76 | KPIETYFSKNF [PLP1_Y50_L46P_YF] | 0.465
77 | HYECKYVINAI [MAOA_Y268] | 0.66
78 | PLDGEYSTLQI [TP53_Y327_F328S] | 0.75
79 | LSVMSYDLGMF [GBA3_Y174] | 0.62
80 | ACEVLYNIAFM [NCF2_Y125] | 2.03
81 | LWKWKYEELKE [CCDC102B_Y299] | 0.336
82 | DLDATYRPMFS [JUP_Y701_M697L_YF] | 0.33
83 | HDRNTYEKYLE [TF_Y666_G671E] | 0.506
84 | NPQKSYFICLY [WAS_Y83_R86C] | 0.557
85 | LLVVLCKYRCY [PSEN1_Y154_Y154C] | 0.315
86 | DISEPYEVYRI [IRF8_Y107_K108E] | 0.522
87 | CTTIHYNYMHN [TP53_Y234_C238H] | 0.433

tested on: c-Abl (mouse); experiment: as above

Row | Sequence | phosphorylation enrichment
88 | DISEPYEVFRI [IRF8_Y107_K108E_YF] | 1.09
89 | VLALWYYYLTH [ZDHHC23_Y127] | 0.964
90 | KPPPSYESEEE [BRD4_Y599_T598S] | 0.957
91 | IVKAFYVRARA [AIPL1_Y268_YF] | 0.699
92 | GYAGKYIAMVM [CYP19A1_Y441_C437Y] | 0.862
93 | PLGVLYKVKVF [PTS_Y128_V124L_YF] | 0.973
94 | QLDQHYLLVPE [DDX49_Y223_R222H] | 0.642
95 | APSHAYHRGVL [ANO1_Y981_G983R] | 0.51
96 | WRVIGYHVVVW [ATP13A2_Y50] | 0.903
97 | FSIAQYCCRMG [LRRK2_Y2023_G2019S_YF] | 1.03
98 | SLNAVYPKAGS [OAS3_Y376_R378K] | 0.467
99 | FLAATYPTVGQ [NF1_Y2508_YF] | 0.401
100 | SGDDGYAKDAK [TENM4_Y1530] | 0.456
101 | TDIVAYSGWVQ [SPTBN2_Y477_R480W] | 1.75
102 | THPFPYLSLEI [MLH1_Y293_L292P] | 0.715
103 | METKGYQSLPE [NR3C2_Y6_H7Q] | 0.683
104 | QDIMAYRSREV [BCL6_Y157_G159S] | 0.745
105 | KPIETYFSKNF [PLP1_Y50_L46P_YF] | 0.53
106 | HYECKYVINAI [MAOA_Y268] | 0.86
107 | PLDGEYSTLQI [TP53_Y327_F328S] | 1.33
108 | LSVMSYDLGMF [GBA3_Y174] | 1.07
109 | ACEVLYNIAFM [NCF2_Y125] | 2.57
110 | LWKWKYEELKE [CCDC102B_Y299] | 0.725
111 | DLDATYRPMFS [JUP_Y701_M697L_YF] | 0.662
112 | HDRNTYEKYLE [TF_Y666_G671E] | 1.08
113 | NPQKSYFICLY [WAS_Y83_R86C] | 0.925
114 | LLVVLCKYRCY [PSEN1_Y154_Y154C] | 0.606
115 | DISEPYEVYRI [IRF8_Y107_K108E] | 0.862
116 | CTTIHYNYMHN [TP53_Y234_C238H] | 0.446
